Laboratory results: patent publication US20100227824A1 (SYMTHERA CANADA, published 2010)
Ends that are not written are not given here.

Experiments:
Assay in all cases: micro-array, phage-presented peptide on printed CK
[1] = target: T1, MCP-1 (CCL2) (UniProt P13500 24-99)
T1 construct: Bought chemokine
Description: (§1) (1) Printing: Chemokine (CK) solution (in water) was serially diluted with Print Reagent (GenTel BioSurfaces USA) to final concentrations of 50 μg and 25 μg/ml. BSA/BSA-Biotin control solutions (in water) were diluted with Print Reagent to 100 μg/ml. Amplified stock of M13 phage control (M13KEgIII Cloning Vector, New England Biolabs, Cat.No.E8101S) was stored in Tris Buffered Saline (TBS; pH7.5, 4° C.) and diluted with Print Reagent to the working titre (10^8 pfu/μl). An automated spotting robot (16 pin print tool, 0.4mm head; BioRobotics, UK) was used to print the CK/BSA control/M13 control, 5 repeats per sample (CK 25 μg/ml and 50 μg/ml; BSA 100 μg/ml; M13 20 μl), on PATH Protein Microarray Slides (GenTel, Prod.No.2-1005/-1025) at […], and 50-70% relative humidity. Printed micro-array slides were stored at Room Temperature (RT) or 4° C. for at least 24 h before use.
(§2) (2) Blocking: Block Buffer (500 μl/partition; PATHblock, GenTel, Prod.No.2-1014) was applied to the slide for 1 hour at room temp (RT). After removal of Block Buffer, the slide was air dried for 25 minutes;
(§3) (11) Analysis: Quantitative analysis of micro-array was performed by the SpotReader program of Niles Scientific (USA) and presented as Relative Fluorescence (RF) as a function of CK concentration. Micro-array readout (Cy3 fluorescence) was quantified to determine the relative binding affinities of a CBP for the CKs and by inference, the specificity of the CBP for binding to a CK.

[2] = target: T2, MCP-2 (CCL8) (UniProt P80075 24-99)
T2 construct: Bought chemokine
T2 sequence (looked up): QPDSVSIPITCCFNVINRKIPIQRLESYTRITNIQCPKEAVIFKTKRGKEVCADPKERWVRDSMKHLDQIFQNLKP
Description: as §1, §2, §3

[3] = target: T3, Eotaxin (CCL11) (UniProt P51671 24-97)
T3 construct: Bought chemokine
T3 sequence (P51671 24-97 limits assumed): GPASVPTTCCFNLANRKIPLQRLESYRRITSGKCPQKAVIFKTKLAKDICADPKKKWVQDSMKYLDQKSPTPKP
Description: as §1, §2, §3

[4] = target: T4, GRO-β (CXCL2) (UniProt P19875 35-107)
T4 construct: Bought chemokine
T4 sequence (looked up): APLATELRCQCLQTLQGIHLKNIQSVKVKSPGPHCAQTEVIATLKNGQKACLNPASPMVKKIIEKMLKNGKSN
Description: as §1, §2, §3

[5] = target: T5, Eotaxin 3 (CCL26) (UniProt Q9Y258 24-94)
T5 construct: Bought chemokine
T5 sequence (looked up): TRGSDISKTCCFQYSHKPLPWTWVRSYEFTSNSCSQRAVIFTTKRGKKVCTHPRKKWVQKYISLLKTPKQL
Description: as §1, §2, §3

[6] = target: T6, MCP-4 (CCL13) (UniProt Q99616 24-98)
T6 construct: Bought chemokine
T6 sequence (Q99616 24-98 limits assumed): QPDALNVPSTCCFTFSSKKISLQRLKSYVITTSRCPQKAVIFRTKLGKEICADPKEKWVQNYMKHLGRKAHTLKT
Description: as §1, §2, §3

[7] = target: T7, TECK (CCL25) (UniProt O15444 24-150)
T7 construct: Bought chemokine
T7 sequence (looked up): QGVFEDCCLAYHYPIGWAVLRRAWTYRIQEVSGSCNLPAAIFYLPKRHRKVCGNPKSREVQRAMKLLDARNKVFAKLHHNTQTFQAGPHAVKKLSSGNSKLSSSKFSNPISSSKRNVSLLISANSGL
Description: as §1, §2, §3

[8] = target: T8, Lymphotactin (XCL-1) (UniProt P47992 23-114, limits assumed)
T8 construct: Bought chemokine
T8 sequence (looked up): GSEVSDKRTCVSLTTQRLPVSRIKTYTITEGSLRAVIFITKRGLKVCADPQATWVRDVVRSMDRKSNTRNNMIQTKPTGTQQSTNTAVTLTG
Description: as §1, §2, §3

[9] = target: T9, Mig (CXCL9) (UniProt Q07325 23-125)
T9 construct: Bought chemokine
T9 sequence (looked up): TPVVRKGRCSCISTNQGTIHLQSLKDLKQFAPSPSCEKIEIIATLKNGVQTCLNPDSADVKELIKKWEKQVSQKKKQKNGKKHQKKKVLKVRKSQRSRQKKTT
Description: as §1, §2, §3

[10] = target: T10, RANTES (CCL5) (UniProt P13501 24-91)
T10 construct: Bought chemokine
T10 sequence (looked up): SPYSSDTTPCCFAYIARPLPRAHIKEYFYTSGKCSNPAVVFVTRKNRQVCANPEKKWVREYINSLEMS
Description: as §1, §2, §3

[11] = target: T11, I-TAC (CXCL11) (UniProt O14625 22-94)
T11 construct: Bought chemokine; also called I-TACK
T11 sequence (looked up): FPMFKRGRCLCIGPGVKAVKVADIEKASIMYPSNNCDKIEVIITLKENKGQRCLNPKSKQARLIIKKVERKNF
Description: as §1, §2, §3

[12] = target: T12, Exodus-2 (CCL21) (UniProt O00585 24-134)
T12 construct: Bought chemokine
T12 sequence (looked up): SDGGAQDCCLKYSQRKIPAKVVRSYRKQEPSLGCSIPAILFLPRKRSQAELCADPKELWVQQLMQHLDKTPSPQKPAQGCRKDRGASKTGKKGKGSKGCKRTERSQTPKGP
Description: as §1, §2, §3

[13] = target: T13, BCA-1 (CXCL13) (UniProt O43927 23-109)
T13 construct: Bought chemokine
T13 sequence (looked up): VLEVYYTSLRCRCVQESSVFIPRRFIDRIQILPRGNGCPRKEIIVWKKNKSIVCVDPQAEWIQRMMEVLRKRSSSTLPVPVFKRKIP
Description: as §1, §2, §3

[14] = target: T14, IP-10 (CXCL10) (UniProt P02778 22-98)
T14 construct: Bought chemokine
T14 sequence (looked up): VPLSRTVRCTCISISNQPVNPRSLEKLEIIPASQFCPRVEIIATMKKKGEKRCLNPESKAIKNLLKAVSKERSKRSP
Description: as §1, §2, §3

[15] = target: T15, Eotaxin 2 (CCL24) (UniProt O00175 27-104, limits assumed)
T15 construct: Bought chemokine
T15 sequence (looked up): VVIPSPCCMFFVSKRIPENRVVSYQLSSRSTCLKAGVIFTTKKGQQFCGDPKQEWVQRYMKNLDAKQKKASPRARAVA
Description: as §1, §2, §3

[16] = target: T16, SDF-1β (CXCL12) (UniProt P48061 22-93)
T16 construct: Beta isoform of CXCL12; also called SDFβ
T16 sequence (P48061 22-93 limits assumed): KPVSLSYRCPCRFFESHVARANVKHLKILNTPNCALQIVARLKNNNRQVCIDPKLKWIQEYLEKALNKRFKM
Description: as §1, §2, §3

[17] = target: T17, I-309 (CCL1) (UniProt P22362 23-96, limits assumed)
T17 construct: Bought chemokine
T17 sequence (looked up): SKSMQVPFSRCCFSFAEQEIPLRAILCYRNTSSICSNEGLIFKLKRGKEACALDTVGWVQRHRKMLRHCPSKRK
Description: as §1, §2, §3

[18] = target: T18, SDF-1α (CXCL12) (UniProt P48061-2 22-89)
T18 construct: Alpha isoform of CXCL12; also called SDFα
T18 sequence (P48061 22-89 limits assumed): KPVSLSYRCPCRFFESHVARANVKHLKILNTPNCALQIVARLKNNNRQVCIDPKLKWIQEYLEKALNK
Description: as §1, §2, §3

T1 sequence (P13500 24-99 limits assumed): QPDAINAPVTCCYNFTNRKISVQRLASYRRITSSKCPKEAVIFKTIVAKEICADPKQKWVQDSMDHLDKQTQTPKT

| Binder | Relative Fluorescence Units (RFU) [2] | binding result [3] | binding result [4] | binding result [5] | Relative Fluorescence Units (RFU) [6] | binding result [7] | binding result [8] | binding result [9] | binding result [10] | binding result [1] | binding result [12] | binding result [13] | binding result [6] | binding result [15] | binding result [11] | binding result [14] | further results |
| --- | --- | --- | --- | --- | --- | --- | --- | --- | --- | --- | --- | --- | --- | --- | --- | --- | --- |
| TTFFDYDYG [Phage-Presented Peptide 11 (Ph-p11)] | > 600 RFU | binds | binds | binds | > 600 RFU | binds | binds | binds | binds |  |  |  |  |  |  |  | Relative Fluorescence Units (RFU) [1]: > 600 RFU |
| WVFGSGLCK [Phage-Presented Peptide 15 (Ph-p15)] |  | binds | binds | binds |  | binds | binds |  | binds | binds | binds | binds | binds | binds |  |  | binding result [2]: binds; Relative Fluorescence Units (RFU) [11]: > 15000 RFU; Relative Fluorescence Units (RFU) [14]: > 15000 RFU; Relative Fluorescence Units (RFU) [9]: > 15000 RFU |
| HYTCSSHFP (also: displayed on M13 phage, fusion not given here) [Phage-Presented Peptide 17 (Ph-p17)] | > 600 RFU | binds | binds | binds |  | binds | binds | binds |  | binds |  |  | binds |  | binds |  | Relative Fluorescence Units (RFU) [10]: > 600 RFU |
| DRYLNIVHAT [Phage-Presented Peptide 18 (Ph-p18)] |  | binds | binds | binds |  | binds | binds |  | binds | binds |  | binds | binds | binds |  |  | binding result [2]: binds; Relative Fluorescence Units (RFU) [11]: > 9000 RFU; Relative Fluorescence Units (RFU) [9]: > 9000 RFU |
| TKCQKE [Phage-Presented Peptide 20 (Ph-p20)] | > 15000 RFU | binds | binds | binds | > 15000 RFU | binds | binds | binds | binds |  | binds | binds |  |  |  | binds | Relative Fluorescence Units (RFU) [1]: > 15000 RFU |
| WVFGNAMCK (also called Ph-p28; Ph-p 8) [Phage Presented (Ph) Peptide (p) 8] | > 25000 RFU |  |  |  | > 25000 RFU |  |  |  |  |  |  |  |  |  |  |  |  |
| WVFGNAACK [Phage-Presented Peptide 8.7 (Ph-p8.7)] | > 15000 RFU | binds |  | binds | > 15000 RFU | binds | binds | binds |  |  |  | binds |  |  | binds | binds | binding result [16]: binds; binding result [17]: binds |
| SYYDDVGL [Phage-Presented Peptide 27 (Ph-p27)] |  | binds | binds | binds |  | binds | binds |  | binds | binds | binds | binds | binds | binds |  |  | binding result [2]: binds; Relative Fluorescence Units (RFU) [11]: > 15000 RFU; Relative Fluorescence Units (RFU) [9]: > 15000 RFU |
| GNAMCK [Phage-Presented Peptide 8.1 (Ph-p8.1)] |  |  |  |  |  |  |  |  |  |  |  |  |  |  |  |  | Relative Fluorescence Units (RFU) [13]: > 15000 RFU; Relative Fluorescence Units (RFU) [5]: > 15000 RFU; Relative Fluorescence Units (RFU) [7]: > 15000 RFU; Relative Fluorescence Units (RFU) [8]: > 15000 RFU |
| WVFG [Phage-Presented Peptide 8.4 (Ph-p8.4)] | > 15000 RFU | binds |  | binds | > 15000 RFU | binds | binds | binds |  |  |  | binds |  |  | binds | binds | binding result [17]: binds |
| WVFGAAACK [Phage-Presented Peptide 8.6 (Ph-p8.6)] | > 15000 RFU | binds |  | binds | > 15000 RFU | binds | binds | binds |  |  | binds | binds |  | binds | binds | binds | Relative Fluorescence Units (RFU) [1]: > 15000 RFU; binding result [18]: binds; binding result [16]: binds; binding result [17]: binds |
